The series is described as follows: protein stability index of a GFP-peptide fusion (GPS, HEK-293T) (PSI 1-6); higher = more stable. The settings on record: c terminus: a fixed tail appended.

± gives the standard deviation.
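Also: 24-mer peptide tiles fused after GFP, lentivirally expressed, FACS-sorted into six equal bins by GFP/DsRed ratio, decoded by Illumina sequencing, PSI is the read-weighted mean bin number.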

Consider YCFMIAYGTQRTLILESQNWRYAT [FUT8], for which the protein stability index by setting is: (treatment: DMSO) 3.46 ± 0.51; (treatment: MLN4924 1 uM, 8 h) 3.28 ± 0.27.
In the case of YEEGMYADWWQEPDAKGDEAEAEP [P3H4], the protein stability index came to 5.49 ± 0.17 (treatment: DMSO) and 5.37 ± 0.22 (treatment: MLN4924 1 uM, 8 h).
For YFMIQALNQKTSEKMKKRKMSNSF [RHOBTB3], the protein stability index amounted to 2.24 ± 0.08 (treatment: DMSO) and 2.37 ± 0.33 (treatment: MLN4924 1 uM, 8 h).
Consider YGPVEVISHWHPNITINIVDDHTP [CLPTM1], for which the protein stability index is, setting by setting: (treatment: DMSO) 2.41 ± 0.23; (treatment: MLN4924 1 uM, 8 h) 2.54 ± 0.17.
For YGRSDVVVLCFSIANPNSLNHVKS [RHOBTB1], the protein stability index reads like this: (treatment: DMSO) 3.21 ± 0.43; (treatment: MLN4924 1 uM, 8 h) 2.64 ± 0.69.
YHPRDQNKVLVCPMKSAPVMLTLS [RBBP5] returned a protein stability index (treatment: DMSO) of 2.33 ± 0.66 and a protein stability index (treatment: MLN4924 1 uM, 8 h) of 2.34 ± 0.3.
As for YLNLDTWEWNELIPQGICPVGRSW [KLHDC2], the protein stability index was 2.79 ± 1.1 (treatment: DMSO) and 2.39 ± 0.42 (treatment: MLN4924 1 uM, 8 h).
The sequence YLSCLEELMKCQIIYPRQQLLTLR [TRIP13] came in with a protein stability index (treatment: DMSO) of 2.68 ± 0.68 and a protein stability index (treatment: MLN4924 1 uM, 8 h) of 2.69 ± 0.36.
YLTSQLPPLREIILGPSSAYTQTQ [NFE2L1]: the protein stability index runs as follows: (treatment: DMSO) 2.38 ± 0.3; (treatment: MLN4924 1 uM, 8 h) 2.52 ± 0.1.
Take YMHVGSCQHLSSSAEELRKARSNS [KCNA3]: the protein stability index came to 3.95 ± 0.11 (treatment: DMSO) and 4.37 ± 0.22 (treatment: MLN4924 1 uM, 8 h).
Turning to YMVIEEGGMNHSAFPQTPFKTGNS [KCNA3], the protein stability index came out at 3.27 ± 0.17 (treatment: DMSO) and 3.22 ± 0.61 (treatment: MLN4924 1 uM, 8 h).
In the case of YNPSFEDHQTLLSAAHEVELQRQK [NOP53], the protein stability index reads like this: (treatment: DMSO) 4.19 ± 0.56; (treatment: MLN4924 1 uM, 8 h) 4.35 ± 0.44.
For YPTDNTKVMIFKSSYSLSDMVSNI [MIA2], the protein stability index is, setting by setting: (treatment: DMSO) 2.51 ± 0.62; (treatment: MLN4924 1 uM, 8 h) 2.436 ± 0.003.
YQIYDVSGESNSAVSTEDLKECLK [LARP4]: the protein stability index amounted to 4.2 ± 0.18 (treatment: DMSO) and 4.2 ± 0.19 (treatment: MLN4924 1 uM, 8 h).
YQLCRVQECPPDGRSFREEQCVSF [ADAMTSL2] returned a protein stability index (treatment: DMSO) of 2.92 ± 0.65 and a protein stability index (treatment: MLN4924 1 uM, 8 h) of 2.97 ± 0.32.
Take YREHKSLTGTARYMSINTHLGKEQ [CSNK1G1]: the protein stability index reads like this: (treatment: DMSO) 3.47 ± 0.34; (treatment: MLN4924 1 uM, 8 h) 3.27 ± 0.49.

These data come from the supplement of paper PMC10567573.
